These results are taken from patent US20150004189A1 (published 2015).

Experiment [1] has as its target HLA-DQ molecule DQB1*0503 (human). The experiment can be described thus: competition: inhibition of radiolabeled peptide binding to purified HLA.
Experiment [2] has as its target HLA-DQ molecule DQB1*0602 (human). Described as above.
Experiment [3] deals with HLA-DQ molecule DQB1*0502 (human). Described as above.
Experiment [4] concerns the target HLA-DQ molecule DQB1*0602 (human). As to the kind of experiment: inhibition of radiolabeled peptide binding to purified HLA-DQ.
For experiment [5], the target named is HLA-DQ molecule DQB1*0503 (human). The description is as above.
Experiment [6] concerns the target T1, HLA-DQ molecule DQB1*0501 (human, limits assumed).
T1 MHC II alpha: not shown
T1 MHC II beta: not shown
Described as above.

Experiment [7] deals with HLA-DQ molecule DQB1*0301 (human, UniProt P01909 24-216; P01920 33-230, limits assumed). The description is as above.
For experiment [8], the target named is HLA-DQ molecule DQB1*0202 (human). The experiment is described as above.
Experiment [9] concerns the target T2, HLA-DQ molecule DQB1*0402 (human, UniProt P01909 24-216; P01920 33-230, limits assumed).
T2 MHC II alpha: not shown
T2 MHC II beta: not shown
The description is as above.

Experiment [10] concerns the target T3, HLA-DQ molecule DQB1*0302 (human, UniProt P01909 24-216; P01920 33-230, limits assumed).
T3 MHC II alpha: not shown
T3 MHC II beta: not shown
The experiment is described as above.

Experiment [11] has as its target HLA-DP molecule DPB1*2001 (human). As to the kind of experiment: inhibition of radiolabeled peptide binding to purified HLA-DP.
Experiment [12] addresses T4, HLA-DP molecule DPB1*0401 (human).
T4 chain 1: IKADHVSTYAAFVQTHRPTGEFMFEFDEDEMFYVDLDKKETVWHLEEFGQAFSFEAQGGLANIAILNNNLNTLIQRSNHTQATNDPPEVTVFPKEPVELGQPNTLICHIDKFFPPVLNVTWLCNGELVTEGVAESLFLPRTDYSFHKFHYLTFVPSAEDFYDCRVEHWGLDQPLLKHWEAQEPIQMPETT
T4 chain 2: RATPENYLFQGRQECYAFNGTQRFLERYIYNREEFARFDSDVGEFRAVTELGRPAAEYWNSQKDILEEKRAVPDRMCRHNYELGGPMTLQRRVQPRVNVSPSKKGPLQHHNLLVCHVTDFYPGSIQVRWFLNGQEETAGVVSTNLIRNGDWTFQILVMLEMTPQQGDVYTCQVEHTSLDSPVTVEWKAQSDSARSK
Described as above.

For experiment [13], the target named is T5, HLA-DP molecule DPB1*0101 (human, UniProt P20036 29-222; P04440 30-225, limits assumed).
T5 MHC II alpha: not shown
T5 MHC II beta: not shown
The experiment is described as above.

Experiment [14] deals with T6, HLA-DP molecule DPB1*0201 (human, UniProt P20036 29-222; P04440 30-225, limits assumed).
T6 MHC II alpha: not shown
T6 MHC II beta: not shown
The description is as above.

Experiment [15] addresses T7, HLA-DP DPB1*0401 (human).
T7 chain 1: T4 chain 1
T7 chain 2: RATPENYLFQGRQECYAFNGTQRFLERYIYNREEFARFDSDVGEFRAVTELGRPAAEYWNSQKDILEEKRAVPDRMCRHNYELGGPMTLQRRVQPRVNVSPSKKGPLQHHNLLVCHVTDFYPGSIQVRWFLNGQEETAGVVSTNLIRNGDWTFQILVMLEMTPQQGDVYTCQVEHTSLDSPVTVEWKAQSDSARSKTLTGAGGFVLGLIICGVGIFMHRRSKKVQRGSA
The description is as above.

The target in experiment [16] is HLA-DQ molecule DQB1*0202 (human). The experiment can be described thus: competition: inhibition of radiolabeled peptide binding to purified HLA.
For experiment [17], the target named is HLA DQ molecule DQB1*0503 (human). The experiment can be described thus: inhibition of radiolabeled peptide binding to purified HLA class II.
Experiment [18] deals with HLA DQ molecule DQB1*0602 (human). The description is as above.
In experiment [19] the target is T8, HLA DQ molecule DQB1*0302 (human, UniProt P01909 24-216; P01920 33-230, limits assumed).
T8 MHC II alpha: not shown
T8 MHC II beta: not shown
The description is as above.

The target of experiment [20] is HLA DQ molecule DQB1*0502 (human). Described as above.
For experiment [21], the target named is T9, HLA DQ molecule DQB1*0501 (human, limits assumed).
T9 MHC II alpha: not shown
T9 MHC II beta: not shown
Described as above.

For experiment [22], the target named is T10, HLA-DP molecule DPB1*0501 (human, UniProt P20036 29-222; P04440 30-225, limits assumed).
T10 MHC II alpha: not shown
T10 MHC II beta: not shown
As to the kind of experiment: inhibition of radiolabeled peptide binding to purified HLA-DP.

The target of experiment [23] is HLA-DQ molecule DQB1*0502 (human). As to the kind of experiment: inhibition of radiolabeled peptide binding to purified HLA.
Experiment [24] addresses T11, HLA-DQ molecule DQB1*0501 (human, limits assumed).
T11 MHC II alpha: not shown
T11 MHC II beta: not shown
The experiment is described as above.

Experiment [25] deals with HLA-DQ molecule DQB1*0202 (human). The description is as above.
For experiment [26], the target named is HLA-DQ molecule DQB1*0503 (human). The description is as above.
For experiment [27], the target named is HLA-DQ molecule DQB1*0602 (human). The experiment is described as above.
For experiment [28], the target named is HLA-DP molecule DPB1*1401 (human). The experiment can be described thus: inhibition of radiolabeled peptide binding to purified HLA-DP.

With INELIASGSEKLASV [Alt a 5 peptide, position 51, Peptide ID 3324.0065], the IC50 (as a rule, the point on the concentration scale where inhibition reaches its midpoint) was found to be 7.54 µM in experiment [1], 0.302 µM in experiment [2] and 25.9 µM in experiment [3].
As to ERSLWIIFSKNLNIK [Cha o 1 (86-100) peptide ERSLWIIFSKNLNIK], the results for the IC50 in experiment [4], in [5] and in experiment [6] were 0.432 µM, 0.301 µM and 0.729 µM, respectively.
Consider NLNIKLNMPLYIAGN [Cha o 1 (96-110) peptide NLNIKLNMPLYIAGN], for which the IC50 was 31.9 µM in [7]; 2.86 µM in experiment [4]; 10.7 µM in experiment [5]; 39.7 µM in [8]; 30.4 µM in experiment [9]; 50 µM in [10].
As to NDKFTVFEGAFNKAI [Pha a 5 peptide, position 181, NDKFTVFEGAFNKAI (Peptide ID 3324.1442)], the IC50 is 0.097 µM in [11], 0.177 µM in experiment [12], 0.613 µM in experiment [13] and 0.028 µM in [14].
Consider EGTVDFIFGEARSLY [Sal k 1 1 peptide 191-205, EGTVDFIFGEARSLY (Peptide ID 3324.1590)], for which, in experiment [15], the IC50 stood at 2.04 µM.
Consider GGRLAFQEFMIVPCE [Alt a 6 peptide, position 161, Peptide ID 3324.0073], for which the figures for the IC50 in [1], in experiment [2] and in experiment [16] were 4.94 µM, 1.29 µM and 32.1 µM, respectively.
Consider AQGKAFYEAVAKAHQ [Alt a 7 peptide, position 190, Peptide ID 3324.0080], for which the IC50 in experiment [2] came to 2.36 µM; in experiment [16] it was 50 µM.
Consider PAVKYIEPDMIVNAT [Pen ch 13 (101-115) peptide PAVKYIEPDMIVNAT, Peptide ID 3324.1304], for which the IC50 worked out at 1.79 µM in experiment [17]; 0.549 µM in [18]; 0.822 µM in experiment [19]; 1.96 µM in experiment [20]; 0.119 µM in [21].
Take DSYKFIPTLVAAVKQ [Lol p 5 1 peptide, position 236, DSYKFIPTLVAAVKQ (Peptide ID 3324.1165)]: the IC50 came out at 0.0069 µM in [22], 0.012 µM in experiment [11], 0.079 µM in [13] and 0.069 µM in experiment [14].
As to EIYNMVKFRMIAGQE [Der p 4 peptide 3324.0978 (position 386)], the IC50 was determined as 26.6 µM in experiment [23]; 3.71 µM in [24]; 29.1 µM in [25]; 11.2 µM in experiment [26]; 0.368 µM in experiment [27].
PAAAYATATPAAATA [Lol p 5 1 peptide, position 306, PAAAYATATPAAATA (Peptide ID 3324.1184)]: the IC50 is 12.4 µM in [22], 0.611 µM in experiment [11], 0.299 µM in experiment [28] and 3.49 µM in experiment [14].
